Experimental data published in patent US4732933A, “Neocarzinostatin complexes, a method for producing the same, and an antitumor agent containing said complexes as an active component” (Kayaku Antibiotics Research Co., Ltd., priority 1982, dated 1988).

Assays:
[1] = Solubility of SMANX in various solvents compared with NCS and starting copolymer (Table 1); type: physicochemical; details: concentration: 1 mg/ml
Protocol: |(concentration: 1 mg/ml)

cancer VX-2 of liver = assay: Tumor affinity in cancer VX-2 of liver after intravenous injection; type: in vivo, rabit
From the text: Tumor affinity in cancer VX-2 of liver of
rabit after intravenous injection of SMANX

[2] = tested on: normal fibroblasts of rabit; assay: Cell toxicity to normal fibroblasts; type: cell-based; set-up: key to Cell toxicity to normal fibroblasts: +: Intensity of toxicity; -: No toxicity; details: for Cell toxicity to normal fibroblasts: judgement after 3 days
From the text: Comparison of cell toxicity
to normal fibroblasts of rabit*
*Judgement after 3 days

Compound | Solubility in 10 mM aqueous solution of sodium bicarbonate [1] | Solubility in Acetone [1] | Solubility in Dioxane [1] | Solubility in Lipiodol [1] | Solubility in Methanol [1] | Solubility in Pyridine [1] | Solubility in Water pH 5.0 ([1]; pH 5.0) | Solubility in Water pH 8.0 ([1]; pH 8.0) | Tumor affinity, distant site (normal liver) (cancer VX-2 of liver; 10 mg/kg, 90') | Tumor affinity, interior of tumor (cancer VX-2 of liver; 10 mg/kg, 90') | Tumor affinity, distant site (normal liver) (cancer VX-2 of liver; 15') | Tumor affinity, interior of tumor (cancer VX-2 of liver; 15') | Tumor affinity, distant site (normal liver) (cancer VX-2 of liver; 60') | Tumor affinity, interior of tumor (cancer VX-2 of liver; 60') | Cell toxicity to normal fibroblasts ([2]; 0.1 μg/ml) | Cell toxicity to normal fibroblasts ([2]; 1.0 μg/ml) | LD50 ([2]; footnote to Table 8 (Cf.)) [µg/mL]
neocarzinostatin [NCS] | soluble | insoluble | insoluble | insoluble | insoluble | insoluble | soluble | soluble | 0 | 0 | 0 | 0 | 0 | 0 | - | + | 1.0
CO[C@@]12[C@H](COC(N)=O)C3=C(C(=O)C(C)=C(N)C3=O)N1C[C@@H]1N[C@@H]12 [Mitomycin C, reference compound] |  |  |  |  |  |  |  |  |  |  |  |  |  |  | + |  | 
